In patent US6855515:

T1: Ac-DEVD-CHO, N-(N-Ac-Asp-Glu-Val)-3-amino-4-oxobutanoic acid
T1 chain: DEVD

T2: PMS1, P54277
T2 chain: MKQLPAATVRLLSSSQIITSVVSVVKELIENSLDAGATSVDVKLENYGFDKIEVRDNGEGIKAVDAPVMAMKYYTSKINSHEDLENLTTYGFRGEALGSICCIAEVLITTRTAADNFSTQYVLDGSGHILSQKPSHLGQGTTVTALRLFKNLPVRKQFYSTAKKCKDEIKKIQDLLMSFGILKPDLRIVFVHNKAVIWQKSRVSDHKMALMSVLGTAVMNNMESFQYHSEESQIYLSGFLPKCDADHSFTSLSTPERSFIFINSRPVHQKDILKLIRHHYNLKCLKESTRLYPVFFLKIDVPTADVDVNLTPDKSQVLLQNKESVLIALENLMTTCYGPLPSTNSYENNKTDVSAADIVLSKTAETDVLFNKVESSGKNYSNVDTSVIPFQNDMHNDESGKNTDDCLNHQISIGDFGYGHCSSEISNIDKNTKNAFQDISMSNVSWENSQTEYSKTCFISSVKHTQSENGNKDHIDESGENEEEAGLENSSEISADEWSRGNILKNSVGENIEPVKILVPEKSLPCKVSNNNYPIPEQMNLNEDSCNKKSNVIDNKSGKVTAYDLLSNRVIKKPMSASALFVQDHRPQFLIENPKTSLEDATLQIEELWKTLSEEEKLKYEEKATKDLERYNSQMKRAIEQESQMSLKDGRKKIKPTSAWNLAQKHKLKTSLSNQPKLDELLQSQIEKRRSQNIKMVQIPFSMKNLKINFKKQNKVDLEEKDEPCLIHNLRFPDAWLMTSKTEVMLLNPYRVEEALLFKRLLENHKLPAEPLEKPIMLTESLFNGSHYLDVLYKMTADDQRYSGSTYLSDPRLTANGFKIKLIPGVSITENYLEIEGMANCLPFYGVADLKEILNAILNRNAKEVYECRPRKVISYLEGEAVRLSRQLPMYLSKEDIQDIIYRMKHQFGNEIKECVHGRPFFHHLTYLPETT

T3: PMS2, P54278
T3 chain: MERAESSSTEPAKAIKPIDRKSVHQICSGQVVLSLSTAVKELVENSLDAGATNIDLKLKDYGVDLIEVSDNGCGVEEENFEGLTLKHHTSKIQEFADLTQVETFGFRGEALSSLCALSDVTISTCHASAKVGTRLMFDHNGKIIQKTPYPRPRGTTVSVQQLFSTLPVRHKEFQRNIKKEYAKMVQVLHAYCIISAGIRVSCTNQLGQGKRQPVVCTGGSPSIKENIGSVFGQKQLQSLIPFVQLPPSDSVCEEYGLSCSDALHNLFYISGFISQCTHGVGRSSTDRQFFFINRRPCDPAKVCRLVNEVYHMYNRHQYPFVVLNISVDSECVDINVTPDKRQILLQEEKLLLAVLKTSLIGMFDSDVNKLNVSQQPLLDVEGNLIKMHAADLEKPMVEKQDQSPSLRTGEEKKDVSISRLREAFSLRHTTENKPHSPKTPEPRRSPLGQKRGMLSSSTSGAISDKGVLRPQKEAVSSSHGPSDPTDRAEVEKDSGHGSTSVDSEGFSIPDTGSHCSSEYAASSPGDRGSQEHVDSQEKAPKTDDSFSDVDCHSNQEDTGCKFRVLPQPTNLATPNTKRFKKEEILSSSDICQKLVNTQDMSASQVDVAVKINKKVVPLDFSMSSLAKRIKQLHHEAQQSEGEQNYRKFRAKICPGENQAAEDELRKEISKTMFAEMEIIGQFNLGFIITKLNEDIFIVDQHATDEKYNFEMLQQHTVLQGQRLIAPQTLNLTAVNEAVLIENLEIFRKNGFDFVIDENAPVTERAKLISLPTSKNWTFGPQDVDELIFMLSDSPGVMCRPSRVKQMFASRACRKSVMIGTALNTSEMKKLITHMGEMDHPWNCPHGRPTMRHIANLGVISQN

T4: SRP-72, O76094
T4 chain: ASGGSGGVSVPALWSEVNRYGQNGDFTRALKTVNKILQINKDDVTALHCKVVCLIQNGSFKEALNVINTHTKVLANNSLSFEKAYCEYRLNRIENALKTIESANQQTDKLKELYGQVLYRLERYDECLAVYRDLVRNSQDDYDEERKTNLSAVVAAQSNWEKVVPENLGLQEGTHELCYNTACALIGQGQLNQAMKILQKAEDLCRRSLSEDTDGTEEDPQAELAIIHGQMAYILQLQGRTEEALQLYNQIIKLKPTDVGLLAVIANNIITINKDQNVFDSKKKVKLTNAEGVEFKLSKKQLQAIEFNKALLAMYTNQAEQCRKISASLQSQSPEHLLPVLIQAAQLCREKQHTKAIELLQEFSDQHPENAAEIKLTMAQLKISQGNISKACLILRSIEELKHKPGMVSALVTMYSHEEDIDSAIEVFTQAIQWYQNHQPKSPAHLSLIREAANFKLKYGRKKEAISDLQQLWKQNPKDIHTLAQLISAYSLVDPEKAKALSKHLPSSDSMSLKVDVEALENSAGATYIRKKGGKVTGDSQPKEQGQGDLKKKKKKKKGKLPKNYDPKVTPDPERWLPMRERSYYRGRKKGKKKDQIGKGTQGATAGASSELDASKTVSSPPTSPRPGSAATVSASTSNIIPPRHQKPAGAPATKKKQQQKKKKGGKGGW

T5: Topoisomerase I, P11387
T5 chain: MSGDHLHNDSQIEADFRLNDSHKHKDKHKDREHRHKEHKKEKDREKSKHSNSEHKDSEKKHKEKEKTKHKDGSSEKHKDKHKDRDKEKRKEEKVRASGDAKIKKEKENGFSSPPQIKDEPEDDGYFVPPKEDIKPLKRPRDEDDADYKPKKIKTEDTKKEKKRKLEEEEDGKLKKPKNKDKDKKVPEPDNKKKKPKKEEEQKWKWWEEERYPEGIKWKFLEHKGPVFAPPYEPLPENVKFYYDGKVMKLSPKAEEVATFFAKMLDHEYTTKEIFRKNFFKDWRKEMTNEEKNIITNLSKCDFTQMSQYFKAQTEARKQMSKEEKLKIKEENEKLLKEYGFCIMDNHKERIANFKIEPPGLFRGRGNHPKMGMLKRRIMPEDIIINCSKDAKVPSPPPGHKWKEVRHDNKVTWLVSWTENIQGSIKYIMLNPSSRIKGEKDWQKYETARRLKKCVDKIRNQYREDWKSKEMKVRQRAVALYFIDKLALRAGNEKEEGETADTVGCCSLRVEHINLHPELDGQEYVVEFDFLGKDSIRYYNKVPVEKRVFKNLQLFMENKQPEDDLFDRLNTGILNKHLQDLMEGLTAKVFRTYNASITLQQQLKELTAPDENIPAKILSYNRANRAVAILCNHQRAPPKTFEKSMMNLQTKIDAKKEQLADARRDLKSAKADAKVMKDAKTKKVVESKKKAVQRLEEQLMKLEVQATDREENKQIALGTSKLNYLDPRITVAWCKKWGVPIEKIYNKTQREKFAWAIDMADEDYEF


Columns and labels:
[1] = target: T1, Ac-DEVD-CHO, …
[2] = target: nuclear mitotic apparatus protein
[3] = target: poly(ADP-ribose) polymerase
PMS1, P54277 = target: T2, PMS1, P54277
PMS2, P54278 = target: T3, PMS2, P54278
[4] = target: RNA polymerase II large subunit, P24928
SRP-72, O76094 = target: T4, SRP-72, O76094
Topoisomerase I, P11387 = target: T5, Topoisomerase I, P11387

Sequence of nuclear mitotic apparatus protein (chain, as listed by the source): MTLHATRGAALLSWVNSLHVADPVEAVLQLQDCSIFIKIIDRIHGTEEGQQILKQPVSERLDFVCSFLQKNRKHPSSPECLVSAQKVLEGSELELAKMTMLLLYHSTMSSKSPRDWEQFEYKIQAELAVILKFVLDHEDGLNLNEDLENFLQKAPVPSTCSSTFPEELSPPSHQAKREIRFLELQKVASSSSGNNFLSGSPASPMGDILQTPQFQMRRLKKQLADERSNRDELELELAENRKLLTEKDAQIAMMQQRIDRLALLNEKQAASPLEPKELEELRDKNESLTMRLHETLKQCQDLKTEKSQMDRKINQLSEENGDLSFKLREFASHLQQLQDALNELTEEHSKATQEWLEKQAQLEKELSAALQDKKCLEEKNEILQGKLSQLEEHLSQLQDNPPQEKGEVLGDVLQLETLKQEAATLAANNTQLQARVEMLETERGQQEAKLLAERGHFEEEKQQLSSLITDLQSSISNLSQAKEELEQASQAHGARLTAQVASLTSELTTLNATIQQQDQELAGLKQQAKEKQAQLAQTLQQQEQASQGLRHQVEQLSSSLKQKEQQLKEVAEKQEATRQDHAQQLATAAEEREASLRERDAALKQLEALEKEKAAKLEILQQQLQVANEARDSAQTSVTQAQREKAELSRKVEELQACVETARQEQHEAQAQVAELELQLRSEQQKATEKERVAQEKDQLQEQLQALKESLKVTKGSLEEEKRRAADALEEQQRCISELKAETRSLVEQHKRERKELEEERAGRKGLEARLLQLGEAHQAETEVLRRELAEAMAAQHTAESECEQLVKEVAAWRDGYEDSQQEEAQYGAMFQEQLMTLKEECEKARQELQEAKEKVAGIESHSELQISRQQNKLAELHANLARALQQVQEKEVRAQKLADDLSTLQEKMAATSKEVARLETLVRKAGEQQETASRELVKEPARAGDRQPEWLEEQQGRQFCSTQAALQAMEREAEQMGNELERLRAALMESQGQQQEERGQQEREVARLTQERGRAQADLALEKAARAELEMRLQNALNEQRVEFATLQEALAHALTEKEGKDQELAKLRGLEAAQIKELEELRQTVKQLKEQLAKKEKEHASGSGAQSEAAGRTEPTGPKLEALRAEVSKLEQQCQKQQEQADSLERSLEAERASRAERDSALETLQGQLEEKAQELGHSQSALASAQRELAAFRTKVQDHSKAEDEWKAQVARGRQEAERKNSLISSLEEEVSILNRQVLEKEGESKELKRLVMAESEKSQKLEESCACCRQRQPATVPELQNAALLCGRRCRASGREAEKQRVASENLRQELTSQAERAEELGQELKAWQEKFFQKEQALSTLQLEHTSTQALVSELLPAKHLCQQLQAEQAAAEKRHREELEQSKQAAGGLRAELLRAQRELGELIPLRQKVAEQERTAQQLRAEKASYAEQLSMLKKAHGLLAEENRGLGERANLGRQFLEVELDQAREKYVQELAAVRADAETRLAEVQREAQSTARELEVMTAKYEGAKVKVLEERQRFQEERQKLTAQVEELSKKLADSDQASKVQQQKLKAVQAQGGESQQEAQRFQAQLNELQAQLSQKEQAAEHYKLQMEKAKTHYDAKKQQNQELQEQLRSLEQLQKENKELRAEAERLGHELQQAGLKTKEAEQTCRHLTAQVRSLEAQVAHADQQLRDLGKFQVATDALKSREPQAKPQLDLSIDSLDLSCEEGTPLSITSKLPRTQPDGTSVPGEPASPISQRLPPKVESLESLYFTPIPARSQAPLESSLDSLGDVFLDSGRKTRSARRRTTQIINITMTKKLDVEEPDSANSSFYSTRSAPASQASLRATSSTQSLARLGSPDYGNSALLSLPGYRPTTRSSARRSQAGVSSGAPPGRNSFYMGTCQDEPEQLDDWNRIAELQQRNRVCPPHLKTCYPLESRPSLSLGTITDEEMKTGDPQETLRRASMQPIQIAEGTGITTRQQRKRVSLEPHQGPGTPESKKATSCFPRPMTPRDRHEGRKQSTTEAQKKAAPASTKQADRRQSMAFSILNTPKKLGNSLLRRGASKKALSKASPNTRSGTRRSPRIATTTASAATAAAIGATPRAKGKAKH
Sequence of U1-70 kDa, P08621 (P08621 whole entry): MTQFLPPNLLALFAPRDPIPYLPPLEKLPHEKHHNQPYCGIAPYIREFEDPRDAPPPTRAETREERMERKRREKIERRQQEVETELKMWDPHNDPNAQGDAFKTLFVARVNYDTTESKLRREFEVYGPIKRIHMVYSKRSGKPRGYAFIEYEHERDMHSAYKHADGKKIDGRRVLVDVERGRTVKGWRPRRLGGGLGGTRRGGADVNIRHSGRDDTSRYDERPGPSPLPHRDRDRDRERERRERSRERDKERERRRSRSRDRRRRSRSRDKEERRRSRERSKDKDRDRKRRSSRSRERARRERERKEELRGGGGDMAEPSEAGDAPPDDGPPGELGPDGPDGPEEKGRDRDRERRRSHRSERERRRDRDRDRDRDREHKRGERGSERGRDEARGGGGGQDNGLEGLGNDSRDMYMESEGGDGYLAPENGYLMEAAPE
Sequence of Ku-70, P12956 (P12956 2-609): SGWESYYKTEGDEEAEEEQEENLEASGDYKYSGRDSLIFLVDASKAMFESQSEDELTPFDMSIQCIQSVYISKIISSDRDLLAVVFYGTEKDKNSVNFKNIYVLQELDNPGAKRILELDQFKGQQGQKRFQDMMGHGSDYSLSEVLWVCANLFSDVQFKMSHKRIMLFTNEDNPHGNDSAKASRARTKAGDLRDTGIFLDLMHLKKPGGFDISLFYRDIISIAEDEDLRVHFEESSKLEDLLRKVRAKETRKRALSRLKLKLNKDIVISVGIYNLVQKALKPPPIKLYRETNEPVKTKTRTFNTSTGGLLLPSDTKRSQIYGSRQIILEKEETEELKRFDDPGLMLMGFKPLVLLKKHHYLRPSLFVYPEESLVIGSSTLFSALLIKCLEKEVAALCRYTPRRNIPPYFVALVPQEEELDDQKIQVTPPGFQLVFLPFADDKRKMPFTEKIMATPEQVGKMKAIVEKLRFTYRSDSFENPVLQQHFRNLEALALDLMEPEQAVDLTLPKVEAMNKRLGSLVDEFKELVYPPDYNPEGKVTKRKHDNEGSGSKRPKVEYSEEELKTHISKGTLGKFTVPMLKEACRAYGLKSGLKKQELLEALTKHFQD

| Protein | generation of caspase-3 substrate fragments in HeLa lysate, immunoblotting [1] | kcat/Km [2] | kcat/Km [3] | cleavage in iodoacetamide-treated HeLa lysate with 50 nM caspase-8 (Ki-67, P46013) | cleavage in iodoacetamide-treated HeLa lysate with 50 nM caspase-8 (Ku-70, P12956) | cleavage in iodoacetamide-treated HeLa lysate with 50 nM caspase-8 (Mi-2) | cleavage of radiolabelled IvTT protein (PMS1, P54277) | cleavage of radiolabelled IvTT protein (PMS2, P54278) | cleavage in iodoacetamide-treated HeLa lysate with 50 nM caspase-8 [4] | cleavage in iodoacetamide-treated HeLa lysate with 50 nM caspase-8 (SRP-72, O76094) | cleavage in iodoacetamide-treated HeLa lysate with 50 nM caspase-8 (Topoisomerase I, P11387) | cleavage in iodoacetamide-treated HeLa lysate with 50 nM caspase-8 (U1-70 kDa, P08621) | cleavage in iodoacetamide-treated HeLa lysate with 50 nM caspase-8 [2] | cleavage in iodoacetamide-treated HeLa lysate with 50 nM caspase-8 [3] |
| --- | --- | --- | --- | --- | --- | --- | --- | --- | --- | --- | --- | --- | --- | --- |
| caspase-3 (protein) SGISLDNSYKMDYPEMGLCIIINNKNFHKSTGMTSRSGTDVDAANLRETFRNLKYEVRNKNDLTREEIVELMRDVSKEDHSKRSSFVCVLLSHGEEGIIFGTNGPVDLKKITNFFRGDRCRSLTGKPKLFIIQACRGTELDCGIETDSGVDDDMACHKIPVEADFLYAYSTAPGYYSWRNSKDGSWFIQSLCAMLKQYADKLEFMHILTRVNRKVATEFESFSFDATFHAKKQIPCIVSMLTKELYFYH | entirely abolished by 100 nM Ac-DEVD-CHO | 500000 M⁻¹ s⁻¹ | 5e+06 M⁻¹ s⁻¹ |  |  |  |  |  |  |  |  |  |  |  |
| caspase-8 (protein) chain 1: SESQTLDKVYQMKSKPRGYCLIINNHNFAKAREKVPKLHSIRDRNGTHLDAGALTTTFEELHFEIKPHDDCTVEQIYEILKIYQLMDHSNMDCFICCILSHGDKGIIYGTDGQEAPIYELTSQFTGLKCPSLAGKPKVFFIQACQGDNYQKGIPVETD chain 2: LSSPQTRYIPDEADFLLGMATVNNCVSYRNPAEGTWYIQSLCQSLRERCPRGDDILTILTEVNYEVSNKDDKKNMGKQMPQPTFTLRKKLVFPSD |  |  |  | No cleavage | No cleavage | No cleavage | also not cleaved by purified caspase-8 | also not cleaved by purified caspase-8 | No cleavage | No cleavage | No cleavage | No cleavage | No cleavage | No cleavage |
